The record followed here is US20230295305A1.

The test deals with biotinylated pHLA: HLA subtype A*02:01 complexed with … (HLA-PEPTIDE target G8) (human). Put plainly: MSD U-PLEX, periplasmic extract on biotinylated pHLA; ratio of target signal to OTLA signal.

For Negative control (MSD screen), the Average Target/OTLA was 1, the Target/OTLA 61 was determined as 1, the Target/OTLA 67 amounted to 2 and the Target/OTLA 246 was determined as 1. The Target/OTLA 250 amounted to 1.
